Assay results taken from paper PMC7557104, “Population genetic and biophysical evidences reveal that purifying selection shapes the genetic landscape of Plasmodium falciparum RH ligands in Chhattisgarh and West Bengal, India” (Malaria Journal, 2020).

Legend:
[1] = target: T1, rPfRH5M, recombinant receptor binding fragment of PfRH5 encoded by the most prevalent haplotype rh5h1 (Y203) (Plasmodium falciparum, UniProt Q8IFM5 35-222, C203Y); experiment: ITC; BSG injected drop by drop (1 min intervals) into the cell holding PfRH5_(3D7) or PfRH5M; BSG 10 times more concentrated than PfRH5; 25 °C; 0.1 M phosphate buffer, pH 7.0, Dulbecco PBS pH 7.4 in the reference cell (methods); PBS-BSG titration subtracted; fit to one set of binding sites; details: both partners purified
T1 construct: PfRH5, Plasmodium falciparum, field-isolate haplotype rh5h1, which differs from the Pf3D7 allele by C203Y; 188 aa, Glutamine-35 to Serine-222, amplified from DNA of an infected blood sample; Cloned BamHI/HindIII into pET-20b(+); also called PfRH5_(variant); Y203 allele; source: E. coli BL21 (DE3), purified (Ni-NTA)
T1 sequence (looked up): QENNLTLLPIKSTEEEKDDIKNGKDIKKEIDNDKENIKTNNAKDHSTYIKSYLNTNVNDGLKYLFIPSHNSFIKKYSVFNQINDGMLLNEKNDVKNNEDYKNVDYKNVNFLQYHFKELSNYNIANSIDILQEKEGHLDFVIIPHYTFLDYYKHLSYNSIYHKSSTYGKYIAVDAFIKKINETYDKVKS

[2] = target: T2, rPfRH5_(3D7), recombinant receptor binding fragment of P. falciparum reticulocyte binding protein-like … (Plasmodium falciparum, UniProt Q8IFM5 35-222); experiment: as above; details: both partners purified
T2 construct: made by site-directed mutagenesis (Y203 to C) of the field-isolate clone rPfRH5M-pET-20b; Cloned BamHI/HindIII into pET-20b(+); also called C203 allele; source: E. coli BL21 (DE3), purified (Ni-NTA)
T2 sequence: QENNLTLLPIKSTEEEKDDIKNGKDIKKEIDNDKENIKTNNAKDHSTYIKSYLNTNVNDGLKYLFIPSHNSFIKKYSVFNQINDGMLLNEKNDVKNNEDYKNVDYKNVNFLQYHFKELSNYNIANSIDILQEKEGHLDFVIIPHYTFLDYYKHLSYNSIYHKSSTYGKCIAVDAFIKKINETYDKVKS

B1: basigin (BSG) (receptor)
chain: AAGTVFTTVEDLGSKILLTCSLNDSATEVTGHRWLKGGVVLKEDALPGQKTEFKVDSDDQWGEYSCVFLPEPMGTANIQLHGPPRVKAVKSSEHINEGETAMLVCKSESVPPVTDWAWYKITDSEDKALMNGSESRFFVSSSQGRSELHIENLNMEADPGQYRCNGTSSKGSDQAIITLRVRSHLAAL
B1 was tested. Which Ka [1] did it give?
The Ka was 3.63e+06 M⁻¹.

And the Ka [2]?
Its Ka is 1.31e+06 M⁻¹.
